Results on 19 variants are retold here after the supplement of paper PMC7125110.

± gives the standard error. For some assays here: Variants at the floor of the assay were thinned out. A value given as a limit tells only on which side of the number the result lay.

The labels stand for the following.
B1: glmS ribozyme (parent)
chain: AUAAAAGCGCCAGAACUACAGAAAUGUAGUUGACGAGGAGGAGGUUUAUCGAAUUUUCGGCGGAUGCCUCCAAA

Settings in all cases: with glucosamine-6-phosphate
In data set [1] the parent is B1. The data set is described as follows: kcat; higher = faster cleavage; RNA array. The gist of the method: (§1)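 Barcoded ribozyme variants on sequenced MiSeq chips were transcribed in situ by E. coli RNA polymerase and followed at 37 °C through a hybridised Cy3 probe. Glucosamine-6-phosphate at 40 μM to 10 mM in HEPES/KCl/Mg(OAc)2 buffer was flowed in, and tiles were imaged over ~14 h. Signals were normalised to baseline and to non-cleaving reference variants, and per-tile medians were fit to one- or two-exponential decays to give kobs. Weighted Michaelis–Menten fits across concentrations gave kcat and KM.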

Data set [2] covers variants of B1. The data set is described as follows: KM; higher = weaker cofactor use; RNA array. The gist of the method:
as §1

In data set [3] the parent is B1. Kind of data set: self-cleavage kobs at 160 uM GlcN6P; higher = faster cleavage; RNA array. An outline of the steps:
as §1

Variants of B1 are the subject of data set [4]. Kind of data set: self-cleavage kobs at 640 uM GlcN6P; higher = faster cleavage; RNA array. The gist of the method: as §1
In data set [5] the parent is B1. The data set is described as follows: self-cleavage kobs at 2500 uM GlcN6P; higher = faster cleavage; RNA array. An outline of the steps:
as §1

In data set [6] the parent is B1. The data set is described as follows: self-cleavage kobs at 10000 uM GlcN6P; higher = faster cleavage; RNA array. An outline of the steps:
as §1

The variants in data set [7] derive from B1. The data set is described as follows: self-cleavage kobs at 40 uM GlcN6P; higher = faster cleavage; RNA array. The gist of the method: as §1

In general, kcat refers to the number of substrate molecules converted per active site and unit of time at saturation. On to A33C C70U, for which the kcat with glucosamine-6-phosphate [1] is 1.19e-05 ± 4.5e-06 s⁻¹.

Usually KM stands for the concentration of substrate that gives half-maximal velocity. In the case of C16G G32A, the kcat with glucosamine-6-phosphate [1] was 0.0013 ± 0.00037 s⁻¹. Moreover, the KM with glucosamine-6-phosphate [2] is 2870 ± 1300 µM. For the same variant, the “self-cleavage kobs at 160 uM GlcN6P” value with glucosamine-6-phosphate [3] came to 7.04e-05 ± 1.7e-05 s⁻¹. In the data set with glucosamine-6-phosphate [4], the “self-cleavage kobs at 640 uM GlcN6P” value was determined as 0.0003 ± 5.5e-05 s⁻¹. For the same variant, the “self-cleavage kobs at 2500 uM GlcN6P” value with glucosamine-6-phosphate [5] turned out to be 0.000434 ± 0.00011 s⁻¹. Moreover, the “self-cleavage kobs at 10000 uM GlcN6P” value with glucosamine-6-phosphate [6] was 0.00115 ± 0.00018 s⁻¹.

Take A36G G63U C70A: the catalytic constant (kcat) in the data set with glucosamine-6-phosphate [1] worked out at 1.84e-05 ± 7.8e-06 s⁻¹.

As to G29U G41C, the kcat with glucosamine-6-phosphate [1] is 4.75e-05 ± 1.3e-05 s⁻¹. Besides, in the data set with glucosamine-6-phosphate [6], the “self-cleavage kobs at 10000 uM GlcN6P” value was 3.1e-05 ± 9e-06 s⁻¹.

Regarding A14G G32A, the kcat with glucosamine-6-phosphate [1] was 0.0158 ± 0.0015 s⁻¹. Moreover, the KM with glucosamine-6-phosphate [2] was found to be 2500 ± 310 µM. Moreover, in the data set with glucosamine-6-phosphate [7], the “self-cleavage kobs at 40 uM GlcN6P” value was 0.000266 ± 3.1e-05 s⁻¹. The “self-cleavage kobs at 160 uM GlcN6P” value in the data set with glucosamine-6-phosphate [3] turned out to be 0.000935 ± 0.00013 s⁻¹. The “self-cleavage kobs at 640 uM GlcN6P” value with glucosamine-6-phosphate [4] is 0.00305 ± 0.0005 s⁻¹. For the same variant, the “self-cleavage kobs at 2500 uM GlcN6P” value in the data set with glucosamine-6-phosphate [5] came out at 0.00726 ± 0.0011 s⁻¹. The “self-cleavage kobs at 10000 uM GlcN6P” value with glucosamine-6-phosphate [6] worked out at 0.0136 ± 0.0018 s⁻¹.

Consider G40U U69C, for which, in the data set with glucosamine-6-phosphate [1], the kcat is 8.37e-05 ± 1.1e-05 s⁻¹. The “self-cleavage kobs at 640 uM GlcN6P” value with glucosamine-6-phosphate [4] came out at 6.56e-05 ± 2e-05 s⁻¹. Moreover, the “self-cleavage kobs at 2500 uM GlcN6P” value with glucosamine-6-phosphate [5] worked out at 9.26e-05 ± 1.9e-05 s⁻¹. For the same variant, the “self-cleavage kobs at 10000 uM GlcN6P” value with glucosamine-6-phosphate [6] worked out at 7.39e-05 ± 1.2e-05 s⁻¹.

On to G63U U69G, for which, in the data set with glucosamine-6-phosphate [1], the kcat was found to be 2.86e-05 ± 7.3e-06 s⁻¹. The “self-cleavage kobs at 160 uM GlcN6P” value in the data set with glucosamine-6-phosphate [3] is 3.51e-05 ± 1.5e-05 s⁻¹. Moreover, in the data set with glucosamine-6-phosphate [4], the “self-cleavage kobs at 640 uM GlcN6P” value was determined as 3.96e-05 ± 1.5e-05 s⁻¹.

As to C11A U49A, the kcat in the data set with glucosamine-6-phosphate [1] is < 1e-05 s⁻¹. In the data set with glucosamine-6-phosphate [4], the “self-cleavage kobs at 640 uM GlcN6P” value was < 1e-05 s⁻¹. In addition, the “self-cleavage kobs at 2500 uM GlcN6P” value with glucosamine-6-phosphate [5] is < 1e-05 s⁻¹.

A15U A52U: the kcat with glucosamine-6-phosphate [1] was 0.000143 ± 1.2e-05 s⁻¹. For the same variant, in the data set with glucosamine-6-phosphate [2], the KM came out at 1610 ± 370 µM. For the same variant, the “self-cleavage kobs at 40 uM GlcN6P” value with glucosamine-6-phosphate [7] was < 1e-05 s⁻¹. In addition, in the data set with glucosamine-6-phosphate [4], the “self-cleavage kobs at 640 uM GlcN6P” value was 3.6e-05 ± 1e-05 s⁻¹. Besides, the “self-cleavage kobs at 2500 uM GlcN6P” value with glucosamine-6-phosphate [5] turned out to be 9.15e-05 ± 9.9e-06 s⁻¹. For the same variant, in the data set with glucosamine-6-phosphate [6], the “self-cleavage kobs at 10000 uM GlcN6P” value amounted to 0.000119 ± 1.5e-05 s⁻¹.

Turning to G7C G37C, the kcat with glucosamine-6-phosphate [1] is < 1e-05 s⁻¹. In addition, in the data set with glucosamine-6-phosphate [7], the “self-cleavage kobs at 40 uM GlcN6P” value is < 1e-05 s⁻¹. In addition, the “self-cleavage kobs at 2500 uM GlcN6P” value with glucosamine-6-phosphate [5] is < 1e-05 s⁻¹. Moreover, the “self-cleavage kobs at 10000 uM GlcN6P” value with glucosamine-6-phosphate [6] is < 1e-05 s⁻¹.

Turning to U54G U56A G63C, the kcat with glucosamine-6-phosphate [1] was < 1e-05 s⁻¹. Moreover, in the data set with glucosamine-6-phosphate [7], the “self-cleavage kobs at 40 uM GlcN6P” value is < 1e-05 s⁻¹. Moreover, the “self-cleavage kobs at 160 uM GlcN6P” value with glucosamine-6-phosphate [3] was < 1e-05 s⁻¹.

As to U54C U69A, in the data set with glucosamine-6-phosphate [1], the kcat came to 0.000112 ± 7.5e-06 s⁻¹. In addition, the KM in the data set with glucosamine-6-phosphate [2] was 82 ± 22 µM. Moreover, the “self-cleavage kobs at 40 uM GlcN6P” value in the data set with glucosamine-6-phosphate [7] was found to be 3.96e-05 ± 1.5e-05 s⁻¹. In the data set with glucosamine-6-phosphate [3], the “self-cleavage kobs at 160 uM GlcN6P” value was 6.58e-05 ± 2.2e-05 s⁻¹. Further, the “self-cleavage kobs at 640 uM GlcN6P” value with glucosamine-6-phosphate [4] came out at 0.000111 ± 3.8e-05 s⁻¹. In the data set with glucosamine-6-phosphate [5], the “self-cleavage kobs at 2500 uM GlcN6P” value was 0.000123 ± 3.1e-05 s⁻¹. Further, in the data set with glucosamine-6-phosphate [6], the “self-cleavage kobs at 10000 uM GlcN6P” value amounted to 0.000105 ± 2e-05 s⁻¹.

C34G C67A: the kcat with glucosamine-6-phosphate [1] was 1.49e-05 ± 6.7e-06 s⁻¹. For the same variant, the “self-cleavage kobs at 160 uM GlcN6P” value with glucosamine-6-phosphate [3] was < 1e-05 s⁻¹.

Take A12C U69G: the kcat with glucosamine-6-phosphate [1] worked out at 6.77e-05 ± 5.2e-06 s⁻¹. Besides, the “self-cleavage kobs at 160 uM GlcN6P” value in the data set with glucosamine-6-phosphate [3] was 5.5e-05 ± 1.2e-05 s⁻¹. In the data set with glucosamine-6-phosphate [4], the “self-cleavage kobs at 640 uM GlcN6P” value was determined as 6.7e-05 ± 8.9e-06 s⁻¹. In the data set with glucosamine-6-phosphate [5], the “self-cleavage kobs at 2500 uM GlcN6P” value was found to be 7.6e-05 ± 9.1e-06 s⁻¹. In addition, the “self-cleavage kobs at 10000 uM GlcN6P” value with glucosamine-6-phosphate [6] was 5.86e-05 ± 7.7e-06 s⁻¹.

For the variant A48C A53U, in the data set with glucosamine-6-phosphate [1], the kcat came out at 0.000244 ± 1.5e-05 s⁻¹. The KM with glucosamine-6-phosphate [2] was found to be 2410 ± 320 µM. For the same variant, in the data set with glucosamine-6-phosphate [4], the “self-cleavage kobs at 640 uM GlcN6P” value came to 4.84e-05 ± 1.1e-05 s⁻¹. In addition, in the data set with glucosamine-6-phosphate [5], the “self-cleavage kobs at 2500 uM GlcN6P” value is 0.000131 ± 2e-05 s⁻¹. The “self-cleavage kobs at 10000 uM GlcN6P” value in the data set with glucosamine-6-phosphate [6] was 0.000191 ± 3e-05 s⁻¹.

As to C11G A33U, the kcat with glucosamine-6-phosphate [1] is < 1e-05 s⁻¹. In the data set with glucosamine-6-phosphate [3], the “self-cleavage kobs at 160 uM GlcN6P” value is < 1e-05 s⁻¹. The “self-cleavage kobs at 2500 uM GlcN6P” value with glucosamine-6-phosphate [5] was < 1e-05 s⁻¹.

With A12C C50G G66C, in the data set with glucosamine-6-phosphate [1], the kcat was found to be 0.000103 ± 2.8e-05 s⁻¹. In the data set with glucosamine-6-phosphate [3], the “self-cleavage kobs at 160 uM GlcN6P” value came out at 0.00011 ± 3.2e-05 s⁻¹. Besides, in the data set with glucosamine-6-phosphate [4], the “self-cleavage kobs at 640 uM GlcN6P” value amounted to 7.92e-05 ± 2.3e-05 s⁻¹. Also, the “self-cleavage kobs at 2500 uM GlcN6P” value with glucosamine-6-phosphate [5] was found to be 0.000103 ± 2.6e-05 s⁻¹.

For the variant A36C G59A, the kcat in the data set with glucosamine-6-phosphate [1] was < 1e-05 s⁻¹. The “self-cleavage kobs at 2500 uM GlcN6P” value with glucosamine-6-phosphate [5] was < 1e-05 s⁻¹. In addition, the “self-cleavage kobs at 10000 uM GlcN6P” value in the data set with glucosamine-6-phosphate [6] was < 1e-05 s⁻¹.

A6U U55C: the kcat with glucosamine-6-phosphate [1] turned out to be 0.000167 ± 2.1e-06 s⁻¹. The KM in the data set with glucosamine-6-phosphate [2] came out at 1250 ± 45 µM. For the same variant, the “self-cleavage kobs at 640 uM GlcN6P” value with glucosamine-6-phosphate [4] turned out to be 5.6e-05 ± 1.6e-05 s⁻¹. Further, in the data set with glucosamine-6-phosphate [5], the “self-cleavage kobs at 2500 uM GlcN6P” value worked out at 0.000112 ± 1.5e-05 s⁻¹. Also, the “self-cleavage kobs at 10000 uM GlcN6P” value with glucosamine-6-phosphate [6] is 0.000148 ± 2.5e-05 s⁻¹.
